Tested on: Escherichia coli TOP10
Assay: shrunken log2 fold change of peptide-encoding DNA abundance (4.5 h post-induction vs induction); higher = less antimicrobial activity (less host growth inhibition)
Conditions: time post-induction: 4.5 h; library: site-saturation at positions 5, 18, 19, 20
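Also: peptides expressed intracellularly from a pBAD plasmid library in pooled LB shake-flask culture, induced with 0.3% L-arabinose, DNA abundance read by NGS, three biological replicates, DESeq2 with apeglm shrinkage.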

Row | Sequence | shrunken log2 fold change
1 | RRIRQRPPRLPRPRPRPAKTPRP | -0.0724
2 | RRIRQRPPRLPRPRPRPALPPRP | 0.397
3 | RRIRQRPPRLPRPRPRPANIPRP | -0.275
4 | RRIRQRPPRLPRPRPRPANKPRP | -0.397
5 | RRIRQRPPRLPRPRPRPANMPRP | -0.242
6 | RRIRQRPPRLPRPRPRPAPNPRP | 0.561
7 | RRIRQRPPRLPRPRPRPAQQPRP | 0.00707
8 | RRIRQRPPRLPRPRPRPAQWPRP | 0.166
9 | RRIRQRPPRLPRPRPRPARPPRP | 0.516
10 | RRIRQRPPRLPRPRPRPATAPRP | 0.115
11 | RRIRQRPPRLPRPRPRPATPPRP | 0.331
12 | RRIRQRPPRLPRPRPRPAVVPRP | 0.242
13 | RRIRQRPPRLPRPRPRPAWFPRP | 0.162
14 | RRIRQRPPRLPRPRPRPAWGPRP | 0.34
15 | RRIRQRPPRLPRPRPRPAYRPRP | -0.216
16 | RRIRQRPPRLPRPRPRPCAQPRP | 0.308
17 | RRIRQRPPRLPRPRPRPCCQPRP | -0.00534
18 | RRIRQRPPRLPRPRPRPCCSPRP | -0.0854
19 | RRIRQRPPRLPRPRPRPCDKPRP | 0.244
20 | RRIRQRPPRLPRPRPRPCEMPRP | -0.00121
21 | RRIRQRPPRLPRPRPRPCFMPRP | 0.628
22 | RRIRQRPPRLPRPRPRPCGFPRP | -0.0124
23 | RRIRQRPPRLPRPRPRPCGRPRP | 0.411
24 | RRIRQRPPRLPRPRPRPCHMPRP | -0.519
25 | RRIRQRPPRLPRPRPRPCIGPRP | -0.204

Row | Sequence | shrunken log2 fold change
26 | RRIRQRPPRLPRPRPRPCINPRP | -0.0449
27 | RRIRQRPPRLPRPRPRPCKIPRP | -0.0788
28 | RRIRQRPPRLPRPRPRPCKQPRP | 0.0108
29 | RRIRQRPPRLPRPRPRPCLDPRP | -0.0986
30 | RRIRQRPPRLPRPRPRPCMPPRP | -0.27
31 | RRIRQRPPRLPRPRPRPCMQPRP | -0.238
32 | RRIRQRPPRLPRPRPRPCNLPRP | 0.0555
33 | RRIRQRPPRLPRPRPRPCNWPRP | 0.0183
34 | RRIRQRPPRLPRPRPRPCNYPRP | 0.00177
35 | RRIRQRPPRLPRPRPRPCQHPRP | 0.0738
36 | RRIRQRPPRLPRPRPRPCQNPRP | -0.173
37 | RRIRQRPPRLPRPRPRPCRHPRP | -0.000946
38 | RRIRQRPPRLPRPRPRPCRSPRP | 0.00709
39 | RRIRQRPPRLPRPRPRPCSCPRP | 0.0297
40 | RRIRQRPPRLPRPRPRPCSWPRP | 0.171
41 | RRIRQRPPRLPRPRPRPCTPPRP | -0.141
42 | RRIRQRPPRLPRPRPRPCTQPRP | -0.0306
43 | RRIRQRPPRLPRPRPRPCWLPRP | 0.0947
44 | RRIRQRPPRLPRPRPRPCYDPRP | -0.357
45 | RRIRQRPPRLPRPRPRPCYYPRP | -0.265
46 | RRIRQRPPRLPRPRPRPDAQPRP | -9.3e-05
47 | RRIRQRPPRLPRPRPRPDATPRP | 0.495
48 | RRIRQRPPRLPRPRPRPDAVPRP | -0.0012
49 | RRIRQRPPRLPRPRPRPDCDPRP | -0.0763
50 | RRIRQRPPRLPRPRPRPDCRPRP | 0.0305

Row | Sequence | shrunken log2 fold change
51 | RRIRQRPPRLPRPRPRPDENPRP | 0.106
52 | RRIRQRPPRLPRPRPRPDEPPRP | -0.0062
53 | RRIRQRPPRLPRPRPRPDEVPRP | 0.0037
54 | RRIRQRPPRLPRPRPRPDFCPRP | -0.129
55 | RRIRQRPPRLPRPRPRPDFDPRP | -0.0668
56 | RRIRQRPPRLPRPRPRPDIMPRP | -0.136
57 | RRIRQRPPRLPRPRPRPDKKPRP | -0.0704
58 | RRIRQRPPRLPRPRPRPDLWPRP | 0.514
59 | RRIRQRPPRLPRPRPRPDMAPRP | 0.0464
60 | RRIRQRPPRLPRPRPRPDMCPRP | -0.225
61 | RRIRQRPPRLPRPRPRPDMGPRP | 0.0191
62 | RRIRQRPPRLPRPRPRPDRNPRP | -0.176
63 | RRIRQRPPRLPRPRPRPDSFPRP | 0.0109
64 | RRIRQRPPRLPRPRPRPDWFPRP | -0.104
65 | RRIRQRPPRLPRPRPRPDYKPRP | -0.0788
66 | RRIRQRPPRLPRPRPRPDYWPRP | 0.156
67 | RRIRQRPPRLPRPRPRPDYYPRP | -0.0251
68 | RRIRQRPPRLPRPRPRPEAGPRP | 0.109
69 | RRIRQRPPRLPRPRPRPEALPRP | -0.0434
70 | RRIRQRPPRLPRPRPRPEASPRP | -0.0802
71 | RRIRQRPPRLPRPRPRPECFPRP | 0.398
72 | RRIRQRPPRLPRPRPRPECGPRP | 0.238
73 | RRIRQRPPRLPRPRPRPEDAPRP | -0.132
74 | RRIRQRPPRLPRPRPRPEEIPRP | 0.0447
75 | RRIRQRPPRLPRPRPRPEFQPRP | -0.0764

Row | Sequence | shrunken log2 fold change
76 | RRIRQRPPRLPRPRPRPEHEPRP | 0.0155
77 | RRIRQRPPRLPRPRPRPEHFPRP | 0.0746
78 | RRIRQRPPRLPRPRPRPEHNPRP | -0.137
79 | RRIRQRPPRLPRPRPRPEHVPRP | 0.00725
80 | RRIRQRPPRLPRPRPRPEINPRP | -0.15
81 | RRIRQRPPRLPRPRPRPEIVPRP | 0.143
82 | RRIRQRPPRLPRPRPRPEKRPRP | 0.00771
83 | RRIRQRPPRLPRPRPRPEMKPRP | -0.0789
84 | RRIRQRPPRLPRPRPRPEMNPRP | 0.0404
85 | RRIRQRPPRLPRPRPRPEMYPRP | -0.173
86 | RRIRQRPPRLPRPRPRPENYPRP | 0.309
87 | RRIRQRPPRLPRPRPRPEPRPRP | 0.508
88 | RRIRQRPPRLPRPRPRPEQTPRP | 0.0148
89 | RRIRQRPPRLPRPRPRPEQYPRP | -0.0417
90 | RRIRQRPPRLPRPRPRPERGPRP | 0.105
91 | RRIRQRPPRLPRPRPRPERHPRP | 0.181
92 | RRIRQRPPRLPRPRPRPESAPRP | 0.208
93 | RRIRQRPPRLPRPRPRPEVIPRP | -0.00663
94 | RRIRQRPPRLPRPRPRPEVTPRP | -0.0614
95 | RRIRQRPPRLPRPRPRPEYDPRP | -0.168
96 | RRIRQRPPRLPRPRPRPEYFPRP | -0.0285
97 | RRIRQRPPRLPRPRPRPEYGPRP | -0.0248
98 | RRIRQRPPRLPRPRPRPFAHPRP | -0.0959
99 | RRIRQRPPRLPRPRPRPFCAPRP | 0.184
100 | RRIRQRPPRLPRPRPRPFCFPRP | 0.117

Row | Sequence | shrunken log2 fold change
101 | RRIRQRPPRLPRPRPRPFDTPRP | -0.144
102 | RRIRQRPPRLPRPRPRPFEAPRP | -0.0497
103 | RRIRQRPPRLPRPRPRPFFRPRP | -0.236
104 | RRIRQRPPRLPRPRPRPFHAPRP | -0.117
105 | RRIRQRPPRLPRPRPRPFKQPRP | -0.24
106 | RRIRQRPPRLPRPRPRPFLSPRP | 0.024
107 | RRIRQRPPRLPRPRPRPFMTPRP | -0.00963
108 | RRIRQRPPRLPRPRPRPFQKPRP | -0.173
109 | RRIRQRPPRLPRPRPRPFSCPRP | -0.00804
110 | RRIRQRPPRLPRPRPRPFTDPRP | 0.0299
111 | RRIRQRPPRLPRPRPRPFTMPRP | -0.141
112 | RRIRQRPPRLPRPRPRPFTYPRP | -0.0211
113 | RRIRQRPPRLPRPRPRPGAEPRP | 0.39
114 | RRIRQRPPRLPRPRPRPGAGPRP | 0.451
115 | RRIRQRPPRLPRPRPRPGAHPRP | 0.179
116 | RRIRQRPPRLPRPRPRPGAIPRP | 0.0781
117 | RRIRQRPPRLPRPRPRPGAPPRP | 0.307
118 | RRIRQRPPRLPRPRPRPGCIPRP | -0.306
119 | RRIRQRPPRLPRPRPRPGEFPRP | 0.313
120 | RRIRQRPPRLPRPRPRPGFDPRP | 2.69
121 | RRIRQRPPRLPRPRPRPGKGPRP | 0.00842
122 | RRIRQRPPRLPRPRPRPGLKPRP | 0.0245
123 | RRIRQRPPRLPRPRPRPGPRPRP | 0.565
124 | RRIRQRPPRLPRPRPRPGRPPRP | 0.121
125 | RRIRQRPPRLPRPRPRPGRRPRP | 0.388

Row | Sequence | shrunken log2 fold change
126 | RRIRQRPPRLPRPRPRPGRTPRP | -0.433
127 | RRIRQRPPRLPRPRPRPGSRPRP | 0.166
128 | RRIRQRPPRLPRPRPRPGSTPRP | -0.146
129 | RRIRQRPPRLPRPRPRPGTCPRP | -0.266
130 | RRIRQRPPRLPRPRPRPGTKPRP | 0.0136
131 | RRIRQRPPRLPRPRPRPGTYPRP | 0.00894
132 | RRIRQRPPRLPRPRPRPGVLPRP | 0.0476
133 | RRIRQRPPRLPRPRPRPGWDPRP | 0.135
134 | RRIRQRPPRLPRPRPRPGWEPRP | -0.00991
135 | RRIRQRPPRLPRPRPRPGYAPRP | 0.0993
136 | RRIRQRPPRLPRPRPRPGYCPRP | -0.0255
137 | RRIRQRPPRLPRPRPRPGYIPRP | -0.625
138 | RRIRQRPPRLPRPRPRPGYYPRP | -0.476
139 | RRIRQRPPRLPRPRPRPHAMPRP | -0.0121
140 | RRIRQRPPRLPRPRPRPHARPRP | -0.00608
141 | RRIRQRPPRLPRPRPRPHATPRP | -0.0615
142 | RRIRQRPPRLPRPRPRPHENPRP | -0.0313
143 | RRIRQRPPRLPRPRPRPHERPRP | 0.158
144 | RRIRQRPPRLPRPRPRPHEVPRP | -0.0426
145 | RRIRQRPPRLPRPRPRPHGCPRP | 0.0414
146 | RRIRQRPPRLPRPRPRPHGGPRP | -0.0841
147 | RRIRQRPPRLPRPRPRPHHGPRP | -0.042
148 | RRIRQRPPRLPRPRPRPHIHPRP | -0.476
149 | RRIRQRPPRLPRPRPRPHINPRP | -0.921
150 | RRIRQRPPRLPRPRPRPHKLPRP | -0.544

Source: the supplement of paper PMC9112550, “Optimization of the antimicrobial peptide Bac7 by deep mutational scanning” (BMC Biology, 2022)
